Measured values from US20080118508A1 (published 2008).

Biological target: T1, human C5a receptor (C5aR) on purified human neutrophils (human, UniProt P21730 1-350)
T1 construct: whole, on cells
T1 sequence (looked up): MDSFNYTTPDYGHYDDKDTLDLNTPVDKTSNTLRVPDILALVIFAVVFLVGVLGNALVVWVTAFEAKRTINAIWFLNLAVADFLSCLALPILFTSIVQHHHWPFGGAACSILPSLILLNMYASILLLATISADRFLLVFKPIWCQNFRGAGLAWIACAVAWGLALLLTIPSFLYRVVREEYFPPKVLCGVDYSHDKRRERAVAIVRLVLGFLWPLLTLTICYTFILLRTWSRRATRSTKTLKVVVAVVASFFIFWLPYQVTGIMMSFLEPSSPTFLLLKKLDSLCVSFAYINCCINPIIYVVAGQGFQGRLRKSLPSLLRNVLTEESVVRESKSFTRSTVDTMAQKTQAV
Experiment: displacement of 125I-C5a from purified human neutrophils by unlabeled recombinant human C5a
Protocol: MAb137-26 was serially diluted in 1.5 ml Eppendorf centrifuged tubes with a binding buffer (1% BSA in RPMI1640 medium) to give final concentrations ranging from 640 nM to 0.04 nM. […] Purified recombinant human C5a (Sigma, St. Louis, Mo. was used as positive control, whereas an isotype-matched irrelevant monoclonal antibody was used as negative control. For the maximum binding of ¹²⁵I-C5a, 36 μl of the binding buffer without the antibodies or C5a was used instead. Fifty microliters of the neutrophil suspension was added to each tube for incubation on ice. At the end of the 40-minute incubation period, the mixture from each tube was transferred to the top of 800 μl of a separation buffer (6% BSA in PBS) in another Eppendorf tube. The tubes were than centrifuged at 2000×g for 3 minutes at room temperature. After the supernatant was aspirated, the cell pellet was re-suspended in 0.5 ml of de-ionized water to lyse the cells. The cell lysate was then mixed with 3 ml of Ultima Gold scintillation fluid (Packard Instrument, Meriden, Conn.) for radioactive counting. The percent inhibition of ¹²⁵I-C5a binding is defined as: [Cpmₘₐₓ−Cpmbkg]−[Cpmca−Cpmbkg]/[Cpmₘₐₓ−Cpmbkg]×100 where: Cpmₘₐₓ=maximum count per minute without competing agents; Cpmbkg=background cpm without addition of ¹²⁵I-C5a; and Cpmca=cpm with competing agents.

B1: human C5a (ligand, UniProt P01031 678-751, looked up)
chain: TLQKKIEEIAAKYKHSVVKKCCYDGACVNNDETCEQRAARISLGPRCIKAFTECCVVASQLRANISHKDMQLGR
notes: domain: C5a; Bought recombinant protein; also called recombinant C5a (Sigma); purified recombinant human C5a
- IC50: 30 nM
